From PMC12657218, “The Panoptes system uses decoy cyclic nucleotides to defend against phage” (Nature, 2025)
pKd: −log10 of the molar value.

Experiments:
Acb2 = biological target: T1, Acb2 (Tequatrovirus T4, UniProt P13314); experiment: isothermal titration calorimetry; format: binding; conditions: read-out: apparent Kd
T1 construct: full-length, N-terminal 6xHis-hSUMO2 tag cleaved with hSENP2; expressed in E. coli
T1 sequence (P13314 1-88): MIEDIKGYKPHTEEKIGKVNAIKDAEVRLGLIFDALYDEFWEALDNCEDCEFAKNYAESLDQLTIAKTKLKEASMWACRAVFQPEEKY

VnOptS = biological target: T2, VnOptS (Vibrio navarrensis, UniProt A0A099LXT1); format: biochemical; conditions: MnCl2 1 mM, MgSO4 10 mM, 20 mM HEPES-KOH pH 7.4, 100 mM NaCl; with ATP, GTP, UTP, CTP; from ATP and GTP
T2 construct: gene EA26_14275; N-terminal His6 tag with or without hSUMO2; expressed in E. coli

[1] = biological target: OptS from Klebsiella pneumoniae KP67 (minimal CRISPR polymerase, mCpol) (Klebsiella pneumoniae KP67); experiment: mass photometry; KpOptS at 50 nM in 20 mM HEPES pH 7.5, 250 mM KCl, room temperature; β-amylase as calibration standard
[2] = biological target: OptS from Klebsiella pneumoniae KP67 (minimal CRISPR polymerase, mCpol) (Klebsiella pneumoniae KP67); experiment: crystal structure; apo KpOptS, 1.75 Å, four copies in the asymmetric unit; crystals from 8% PEG 4000, hanging drop, room temperature
[3] = biological target: OptS from Klebsiella pneumoniae KP67 (minimal CRISPR polymerase, mCpol) (Klebsiella pneumoniae KP67); experiment: SEC; HiLoad 16/600 Superdex 200 pg, 20 mM HEPES pH 7.5, 250 mM KCl, 1 mM TCEP-KOH; elution volume compared with molecular weight standards

For `Nc1ncnc2c1ncn2[C@@H]1O[C@@H]2COP(=O)(O)O[C@@H]3[C@H](O)[C@@H](COP(=O)(O)O[C@H]2[C@H]1O)O[C@H]3n1cnc2c(N)ncnc21` [2′,3′-c-di-AMP], the pKd (Acb2) was ~7.21.
`Nc1nc2c(ncn2[C@@H]2O[C@@H]3COP(=O)(O)O[C@@H]4[C@H](O)[C@@H](COP(=O)(O)O[C@H]3[C@H]2O)O[C@H]4n2cnc3c(N)ncnc32)c(=O)[nH]1` [3′,2′-cGAMP] was tested, and the “HPLC and MS of products” value (VnOptS) was “The most abundant product of the in vitro reactions was a linkage isomer of cyclic GMP-AMP”.
“OptS from Klebsiella pneumoniae KP67 (minimal CRISPR polymerase, mCpol) (enzyme)” was tested, and the stoichiometry N [1] was 4, the stoichiometry N [2] was 4 and the stoichiometry N [3] was > 2.
